Assays:
Format in all cases: biochemical
[1] = system: human skeletal muscle mRNA; assay: cDNA labeling using Cy3 and Cy5-dCTP, microarray (FIG. 9); conditions: Cy3-dCTP or Cy5-dCTP, 50 degrees C.
Protocol: (§1) A typical 20 μl reaction Cy3 or Cy5 reaction had 1 μg of human skeletal muscle mRNA, oligo dT(25) and random nonamer primers and TtsFYDR polymerase enzyme in 1×reaction buffer (50 mM Tris, pH 8.0, 1 mM DDT, 40 mM KC, 100 uM dA,G and TTP and 50 um each of CTP and Cy3-dCTP or Cy5-dCTP depending on the reaction). Control mRNAs (APBiotech Inc.) of known sequence compositions were included in various concentrations to serve as dynamic range and gene expression ratio controls. Tts reactions were carried out at temperatures from 50 degrees C. Template RNA was hydrolyzed by alkali treatment and neutralized with HEPES.
(§2) Probes were purified using MultiScreen filters (Millipore) and quantified by spectrophotometry. Glass slides containing human cDNA gene targets were hybridized with equal amounts (30 pmol each) of Cy3 and Cy5 labeled cDNA probes. Slides were scanned using a GenePix® (Axon) scanner and quantified using ImageQuant software.

[2] = system: Globin mRNA template annealed to P-33 labeled primer; assay: Single nucleotide incorporation of Cy3.5-dCTP or dCTP on RNA template (reverse transcriptase reaction, FIG. 7)
Protocol: The experiment shown in FIG. 7 investigates the relative efficiencies of incorporation of dye-CTP (Cy3.5-dCTP) and dCTP. Three enzyme preparations ΔTts, ΔTts F412Y, ΔTtsF412YD426R were analyzed in this experiment.
(§3) Optimized 1×buffer compositions for Reverse Transcriptase (RNA dependent DNA Polymerase) and DNA Polymerase (DNA dependent DNA polymerase) reactions for all variants of Tts Pol I are as follows. Tris, pH 8.0 (50 mM), KCl (40 mM), MgCl2 (3 mM), DTT (1 mM), DNA or RNA template (as needed), primer (5 to 50 femto mols), enzyme 0.5 to 1 units, dNTP or dNTP analog (varying concentrations as needed). In standard synthesis reactions, when full-length synthesis is monitored, 50 uM of all 4 dNTPs are included. Typical reaction volume is 10 ul. Reaction temperature was kept between 37-60 C. depending on the experimental needs. Reaction time was limited to 10 minutes for single nucleotide incorporation studies. Time was varied as needed for the purpose of the experiments, sometimes up to 1 hour if longer extensions are monitored.
The experiment shown in FIG. 7 investigates the relative efficiencies of incorporation of dye-CTP (Cy3.5-dCTP) and dCTP. Three enzyme preparations ΔTts, ΔTtsFY, ΔTtsF412YD426R were analyzed in this experiment.
In FIG. 7, Globin mRNA served as the template. A 5′ P-33 labeled primer (DNA 25-mer) was annealed to the template. Reactions were performed with varying concentrations of either Cy3.5-dCTP or dCTP alone. Inclusion of only one dNTP allowed incorporation of the next correct nucleotide alone. The sequence of the template-primer that allowed for the examination of single nucleotide “C” incorporation is shown below.
Lanes 1,2,3 and 4 contain 20, 2, 0.2, and 0.02 uM of dNTP or dye-dNTP. Lane with no label has no enzyme, to show the integrity of the starting P-33 labeled primer. Quantification of the single nucleotide extension product is one way to tell if DR change to in the enzyme led to any consequence. “P” indicates a radio labeled primer. “P+1” represents the elongated product by a single nucleotide or nucleotide analog. P+1 migrates slowly with the dye-dNTP conjugate. Note that the migration of Cy3.5 dCMP containing bands travel slowly on the gel compared to dCTP extended products. […] Essentially, incorporation is achieved at lower concentrations (less than 10 times) of dye-dNTP compared to that of the wild type polymerase. It is evident that the DR enzyme was able to incorporate Cy3.5 dCTP at concentrations as low as 0.2 uM (Cy3.5 dCTP) or even lower. […] In this experiment the template-primer is a mRNA annealed to radio labeled primer. Extension is monitored qualitatively as P+1 for the natural nucleotides and P+1* for dye labeled nucleotide. This is a promising first observation for potential use in microarray applications for cDNA probe labeling.

[3] = system: human skeletal muscle mRNA; assay: cDNA labeling using Cy3 and Cy5-dUTP, microarray (FIG. 10); conditions: Cy3-dUTP or Cy5-dUTP, 50 degrees C.
Protocol: as §1, with “CTP” for “TTP”, “TTP” for “CTP”, “Cy3-dUTP” for “Cy3-dCTP”, “Cy5-dUTP” for “Cy5-dCTP”
as §2

[4] = system: defined DNA template-DNA primer; assay: Single nucleotide incorporation of dye-dCTP during DNA dependent DNA synthesis (FIG. 13)
Protocol: as §3
Primer extension was monitored using a defined DNA template-DNA primer.
In this experiment the relative efficiencies of incorporation of dye-CTP (Cy3.5-dCTP) was investigated. Three enzyme preparations were tested ΔTts, ΔTtsF412Y, and ΔTtsF412YD426R
Defined DNA shown below served as the template. A P-33 labeled primer (DNA 25 mer) was annealed to the template. Reactions were performed with varying concentrations of either Cy3.5-dCTP or dCTP alone. Inclusion of only one dNTP allowed incorporation of the next correct nucleotide alone. The sequence of the template-primer that allowed for the examination of single nucleotide “C” incorporation is shown below.
Lanes 1, 2, 3, 4 and 5 contain 20, 2, 0.2, 0.02 and 0 uM dye-dCTP. Lane 5 has no enzyme, to show the integrity of the starting p-33 labeled primer. Quantification of the single nucleotide extension product is one way to tell if DR change in the enzyme led to any consequence. “P” indicates a radio labeled primer. “P+1” represents the elongated product by a single nucleotide or nucleotide analog. P+1 migrates slowly with the dye-dNTP conjugate. Note that the migration of Cy3.5-dCTP containing band travel slowly on the gel compared to dCMP extended products. […] P+1 product is achieved between 10-100 fold less concentration of dye-dCTP with the enzyme having the DR change. Essentially, incorporation is achieved at a much lower concentration of dye-dNMP compared to the wild type enzyme. It is evident that the DR enzyme was able to incorporate Cy3.5-dCTP at concentrations as low as 0.2 uM or even lower.

[5] = system: human skeletal muscle mRNA; assay: cDNA labeling using Cy3/Cy5-dCTP over a wide reaction temperature range, microarray (FIGS. 14a and b); conditions: reaction temperatures 37, 42, 45, 50, 55, 60 and 65 degrees; normalization factor of 2
Protocol: as §1, with “A” for “A typical”, “37, 42, 45, 50, 55, 60 and 65 degrees. For Superscript II, cDNA synthesis reactions were carried out at 42” for “50 degrees”, “C. (Life Technologies).” for “C.”
Probes were purified using MultiScreen filters (Millipore) and quantified by spectrophotometry. Glass slides containing human cDNA gene targets were hybridized with equal amounts (30 pmol each) of Cy3 and Cy5 labeled cDNA probes. Slides were scanned using a GenePix® (Axon) scanner and quantified using ImageQuant software. A normalization factor of 2 (due to differences in the excitation efficiencies of Cy3 and Cy5) was applied to the observed ratio of raw flourescence signal. The figure illustrates precise determination of gene expression differences in Cy3 and Cy5 reactions.

B1: ΔTtsF412YD426R: exonuclease deficient truncated Tts DNA polymerase I with F412Y and D426R changes (SEQ ID No. 7) (protein, listed as Thermoanaerobacter thermohydrosulfuricus)
chain: MYKFLIIDGSSLMYRAYYALPMLTTSEGLPTNALYGFTMMLIKLIEEEKPDYIAIAFDKKAPTFRHKEYQDYKATRQAMPEELAEQVDYLKEIIDGFNIKTLELEGYEADDIIGTISKLAEEKGMEVLVVTGDRDALQLVSDKVKIKISKKGITQMEEFDEKAILERYGITPQQFIDLKGLMGDKSDNIPGVPNIGEKTAIKLLKDFGTIENLIQNLSQLKGKIKENIENNKELAIMSKRLATIKRDIPIEIDFEEYKVKKFNEEKLLELFNKLEFFSLIDNIKKESSIEIVDNHKVEKWSKVDIKELVTLLQDNRNIAFYPLIYEGEIKKIAFSFGKDTVYIDVFQTEDLKEIFEKEDFEFTTHEIKDFLVRLSYKGIECKSKYIDTAVMAYLLNPSESNYDLDRVLKKYLKVDVPSYEGIFGKGRDKKKIEEIDENILADYICSRCVYLFDLKEKLMNFIEEMDMKKLLLEIEMPLVEVLKSMEVSGFTLDKEVLKELSQKIDDRIGEILDKIYKEAGYQFNVNSPKQLSEFLFEKLNLPVIKKTKTGYSTDSEVLEQLVPYNDIVSDIIEYRQLTKLKSTYIDGFLPLMDENNRVHSNFKQMVTATGRISSTEPNLQNIPIREEFGRQIRRAFIPRSRDGYIVSADYSQIELRVLAHVSGDEKLIESFMNNEDIHLRTASEVFKVPMEKVTPEMRRAAKAVNYGIIYGISDYGLSRRLKISRKEAKEYINNYFERYKGVKDYIEKIVRFAKENGYVTTIMNRRRYIPEINSRNFTQRSQAERLAMNAPIQGSAADIIKMAMVKVYNDLKKLKLKSKLILQVHDELVVDTYKDEVDIIKKILKENMENVVQLKVPLVVEIGVGPNWFLAK
B1 was tested, and the “incorporation of Cy3 versus Cy5 in cDNA probes” value [1] was “near even incorporation of Cy3 and Cy5”, the “concentration of Cy3.5 dCTP at which the enzyme was able to incorporate” value ([2]; 10 min single nucleotide incorporation) was at most 0.2 µM and the “fold less concentration of dCTP at which P+1 product is achieved” value ([2]; dCTP, compared with enzymes without the DR change) was 10-100 fold. The “lower concentration of dye-dNTP at which incorporation is achieved compared to wild type polymerase” value ([2]; dye-CTP (Cy3.5-dCTP)) was “less than 10 times”, the “incorporation of Cy3 versus Cy5 in cDNA probes” value [3] was “near even incorporation of Cy3 and Cy5” and the “concentration of Cy3.5-dCTP at which the enzyme was able to incorporate” value [4] was at most 0.2 µM. For the same molecule, the “fold less concentration of dye-dCTP at which P+1 product is achieved” value ([4]; dye-dCTP, compared with enzymes without the DR change) was 10-100 fold and the “normalized observed ratios of Cy3/Cy5 signal versus target ratios” value [5] was “very close to the target ratios”.

Source: patent US20030157533A1, “Nucleic acid labeling by Thermoanaerobacter thermohydrosulfuricus DNA polymerase I variants” (priority 2001, published 2003)
